Assay results reported in paper PMC9294000, “Structural basis for the simultaneous recognition of NEMO and acceptor ubiquitin by the HOIP NZF1 domain” (Scientific Reports, 2022).

T1: human HOIP NZF1 (hHOIP NZF1, aa. 350–379) (human, UniProt Q96EP0 350-379)
T1 construct: HOIP, human, NZF1 domain, residues 350-379; Cloned into pGEX-6p-1; also called Npl4 zinc finger 1 domain of HOIP; source: E. coli BL21 (DE3), purified (Glutathione Sepharose 4B, on-column PreScission cleavage, Superdex 75); not shown: GST, N-terminal, cleaved
T1 chain (looked up): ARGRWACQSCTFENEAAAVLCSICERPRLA


Columns and labels:
[1] = molecular target: T2, mouse NEMO (mNEMO, a.a. 250–339, corresponding to hNEMO 257–346) (mouse, UniProt O88522 250-339); experiment: SPR; Biacore S200; GST-HOIP NZF1 held on anti-GST antibodies amine-coupled to a CM5 chip, GST as control; analytes in 10 mM HEPES pH 7.4, 150 mM NaCl, 0.005% P20; mono-ubiquitin 288.0-1.1 µM, mNEMO 100.0-0.4 µM; equilibrium KD; duplicate; conditions: both partners purified
T2 construct: NEMO (IKKγ), mouse, residues 250-339; Cloned into pET-28a downstream of the 6xHis tag; source: E. coli BL21 (DE3), purified (Talon beads, on-column thrombin cleavage, size-exclusion chromatography); not shown: His6, N-terminal, cleaved

mono-ubiquitin = molecular target: T3, mono-ubiquitin (UniProt P0CG48 1-76); experiment: as above; conditions: both partners purified
T3 construct: ubiquitin (mono-ubiquitin); The methods describe neither a plasmid nor a supplier for the mono-ubiquitin

linear diubiquitin = molecular target: T4, linear diubiquitin (UniProt P0CG48 1-76; P0CG48 1-76); experiment: crystal structure; hHOIP NZF1, hNEMO and linear di-ubiquitin purified separately, mixed in an equimolar ratio; sitting drops, 0.1 M Tris-HCl pH 8.5, 22% v/v PEG Smear Broad; 4.2 Å; heteropentameric complex; conditions: both partners purified
T4 construct: ubiquitin, the N-terminal (distal) unit of the head-to-tail chain; its C-terminal Gly is joined to Met1 of the next ubiquitin; ubiquitin, the C-terminal (proximal) unit of the head-to-tail chain, residues 1-76 (Leu73-Gly76 not visible in the map); Two ubiquitins on one chain, expressed from pGEX-4T-1; also called linear diubiquitin chain; source: E. coli, purified (Glutathione Sepharose 4B, …)

[2] = molecular target: the molecule itself; experiment: as above
[3] = molecular target: T1, human HOIP NZF1 (hHOIP NZF1, aa. …); experiment: as above; conditions: both partners purified

T2 sequence (O88522 250-339): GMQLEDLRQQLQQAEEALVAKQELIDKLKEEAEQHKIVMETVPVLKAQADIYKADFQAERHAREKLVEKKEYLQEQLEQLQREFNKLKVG

Kd [1] | Kd (mono-ubiquitin) | binding result (linear diubiquitin) | stoichiometry N [3] | Binder | stoichiometry N [2]
86.7 µM | 135 µM |  |  | ARGRWACQSCTFENEAAAVLCSICERPRLA (domain or fragment, human, UniProt Q96EP0 350-379, looked up, HOIP, human, NZF1 domain, residues 350-379; Held on the SPR chip by anti-GST antibodies; how the uncleaved fusion was purified is not described; source: E. coli BL21 (DE3), expressed as GST-fusion protein; not shown: GST, N-terminal, kept) [GST-HOIP NZF1(a.a. 350–379)] | 
 |  | binds | 2 NEMO chains per NZF1 | human NEMO (hNEMO, aa. 257–346) (domain or fragment, UniProt Q9Y6K9 257-346, looked up, NEMO (IKKγ), human, residues 257-346 (CoZi region with the UBAN domain); Coiled-coil homodimer in the crystal; Cloned into pGEX-6p-1; also called NEMO CoZi; NEMO coiled-coil 2/zinc finger (CoZi); source: E. coli BL21 (DE3), purified (Glutathione Sepharose 4B, on-column PreScission cleavage, Superdex 75); not shown: GST, N-terminal, cleaved) GMQLEDLKQQLQQAEEALVAKQEVIDKLKEEAEQHKIVMETVPVLKAQADIYKADFQAERQAREKLAEKKELLQEQLEQLQREYSKLKAS | 2
